The assay deals with His6-sPfUIS3 (recombinant His-tagged soluble P. falciparum UIS3, wild type) (P. falciparum). The assay can be described thus: SPR. On the technique in general: Surface plasmon resonance follows binding to a sensor surface in real time, without labels.

Our source for the Kd values is PMC5739284.

“GST-His6-LC3B (recombinant) (from UniProt Q9GZQ8 1-120) (natural protein)”: the Kd – broadly, the free concentration of one partner at which half of the binding sites on the other are occupied at equilibrium, for simple one-to-one binding – worked out at 244 nM.
